Test results as given in PMC12331966.

T1: TIA1 WT (Homo sapiens, UniProt P31483 1-386)
T1 sequence: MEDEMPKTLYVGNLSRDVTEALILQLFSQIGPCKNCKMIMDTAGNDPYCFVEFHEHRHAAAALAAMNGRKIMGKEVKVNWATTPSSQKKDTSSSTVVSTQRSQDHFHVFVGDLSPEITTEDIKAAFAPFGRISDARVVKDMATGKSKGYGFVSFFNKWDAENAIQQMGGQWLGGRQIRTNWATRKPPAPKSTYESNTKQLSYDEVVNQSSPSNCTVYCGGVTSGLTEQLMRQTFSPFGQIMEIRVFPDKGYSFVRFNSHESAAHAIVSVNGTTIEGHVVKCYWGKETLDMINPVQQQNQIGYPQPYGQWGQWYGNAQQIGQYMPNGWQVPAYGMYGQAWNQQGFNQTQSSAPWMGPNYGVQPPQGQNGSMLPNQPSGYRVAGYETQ

B1: Bio-A90 (ssRNA)
RNA: GCCUUUCAUCUCUAACUGCGAAAAAAAAAAAAAAAAAAAAAAAAAAAAAAAAAAAAAAAAAAAAAAAAAAAAAAAAAAAAAAAAAAAAAAAAAAAAAAAAAAAAAAAAAA

What was measured:
Assay in all cases: EMSA
PABPC1 WT = PABPC1 WT (Homo sapiens, UniProt P11940 1-636)
PABPC1 K512R = PABPC1 K512R (Homo sapiens, UniProt P11940 1-636, K512R)
TIA1 WT = target: T1, TIA1 WT

PABPC1 WT, sequence (P11940 whole entry): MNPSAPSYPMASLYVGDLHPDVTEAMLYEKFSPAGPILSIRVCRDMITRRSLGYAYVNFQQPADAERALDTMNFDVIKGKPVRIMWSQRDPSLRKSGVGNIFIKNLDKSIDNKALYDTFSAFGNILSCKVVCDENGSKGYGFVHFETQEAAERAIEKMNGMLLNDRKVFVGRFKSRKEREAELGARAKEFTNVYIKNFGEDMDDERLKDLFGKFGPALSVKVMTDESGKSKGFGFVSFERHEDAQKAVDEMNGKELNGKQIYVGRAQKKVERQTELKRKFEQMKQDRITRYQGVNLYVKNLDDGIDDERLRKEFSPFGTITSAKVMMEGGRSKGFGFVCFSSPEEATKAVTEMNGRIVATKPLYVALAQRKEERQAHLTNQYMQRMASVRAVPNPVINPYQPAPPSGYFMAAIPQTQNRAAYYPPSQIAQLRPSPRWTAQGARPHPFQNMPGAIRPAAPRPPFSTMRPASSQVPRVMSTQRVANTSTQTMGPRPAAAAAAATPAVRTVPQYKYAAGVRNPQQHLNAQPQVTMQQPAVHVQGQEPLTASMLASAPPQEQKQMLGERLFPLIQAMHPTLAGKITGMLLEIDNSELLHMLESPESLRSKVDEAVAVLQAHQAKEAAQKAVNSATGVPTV
PABPC1 K512R, sequence (P11940 whole entry K512R): as the sequence (P11940 whole entry) above, with K512R counted along it

Row | Binder | binding result (PABPC1 WT) | binding result (PABPC1 K512R) | binding result (TIA1 WT)
1 | B1 | binds | binds | 
2 | CUUUUUUUUUUUUUUUUUUUUUUUUG (ssRNA) [Bio-polyU] |  |  | binds
